Data from the supplement of paper PMC10567573.

B1: FAM164C (parent)
chain: YPHCTGISQQDPESDSQGQGNGLF
B2: C2CD2L (parent)
chain: EPAGSLRELGVWRSLLRLRATRAG
B3: TOR1AIP2 (parent)
chain: DGAGRTWQDSDTVKLLVDLELSYG

Variants of: B1
Assay: protein stability index of a GFP-peptide fusion (GPS, HEK-293T) (PSI 1-6); higher = more stable
Conditions: c terminus: a fixed tail appended
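Also: lentivirally expressed fusions sorted by FACS into six bins by GFP to DsRed ratio, PSI derived from sequencing read proportions per bin multiplied by bin number.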

Variant | protein stability index
F24N | 5.06
F24Y | 3.87
F24M | 4.55
F24H | 4.81
F24T | 5.13
F24K | 5.12
F24R | 5.01
F24I | 4.82
F24G | 4.82
F24L | 4.77
F24W | 2.23
F24A | 3.89
F24S | 5.04
F24V | 4.41
F24E | 5
F24C | 4.73
F24D | 4.44
F24Q | 5
F24P | 4.64
L23P | 4.48
L23W | 2.97
L23T | 4.71
L23N | 4.38
L23Q | 4.75
L23Y | 4.26
L23V | 3.87
L23R | 4.63
L23S | 4.6

Variants of: B2
Assay: as above
Conditions: c terminus: a fixed tail appended

Variant | protein stability index
E1M | 1.91
E1R | 2.25
E1L | 2.31
E1I | 1.91
E1N | 2.09
E1F | 2.41
E1P | 2.25
E1T | 1.84
L15D | 3.67
L15P | 3.76
L15M | 2.48
L15K | 2.96
L15G | 3.51
L15E | 4.27
L15T | 2.5
L15N | 3.47
L15Q | 3.84
G24Q | 2.77
G24N | 1.91
G24P | 1.96
G24Y | 1.99
G24V | 2.25
G24L | 2.87
G24F | 2.11

Variant | protein stability index
G24W | 3.29
G24C | 2.99
G24A | 2.89
G24I | 1.97
G24D | 2.66
R22K | 2.66
R22P | 2.14
R22F | 2.1
R22D | 2.3
R22G | 2.36
R22E | 2.25
R22S | 2.23
R22Y | 1.34
R22H | 2.01
A3L | 1.59
A3P | 1.63
A3M | 2.19
A3W | 1.97
A3E | 2.65
A3K | 2.04
A3T | 2.93
A3I | 2.84
A3V | 2.77
A3F | 1.47

Variant | protein stability index
R13Y | 1.91
R13T | 2.05
R13D | 2.62
R13Q | 2.56
R13H | 2.86
R13F | 1.81
R13P | 2.55
L9G | 3.69
L9C | 3.04
L9S | 3.16
L9W | 2.37
L9Y | 4.48
L9Q | 2.77
L9T | 2.92
L9P | 3.7
L9E | 3.3
L9F | 3.97
L9I | 1.71
L9M | 2.07
R19I | 2.24
R19Q | 1.98
R19M | 2.2
R19T | 2.91
R19H | 1.85

Variant | protein stability index
R19D | 2.73
R19W | 2.22
R19Y | 1.48
R19L | 2.95
R19K | 2.99
R19S | 3.27
R19V | 2.31
W12A | 3.02
W12S | 4.37
W12D | 1.9
W12E | 3.84
W12M | 2.42
W12T | 4.02
W12Q | 3.87
W12C | 3.48
W12P | 3.7
L18P | 3.97
L18S | 3.53
L18A | 3.73
L18R | 3.54
L18C | 2.67
L18W | 1.53
L18D | 2.64
L18I | 2.65

Variant | protein stability index
L18F | 2.07
A20M | 2.48
A20P | 3.18
A20S | 1.94
A20D | 3.34
A20H | 2.67
A20L | 2.58
A20Q | 2.04
A20T | 1.85
A20E | 3
R7M | 2.92
R7W | 1.75
R7K | 2.07
R7H | 2.67
R7G | 3.07
R7E | 2.29
R7F | 1.14
R7L | 2.44
R7C | 1.74
R7P | 3.35
R7I | 1.64
R7A | 3.16
P2E | 2.5
P2H | 1.42

Variant | protein stability index
P2V | 1.82
P2G | 1.1
P2R | 2.41
P2A | 2.08
P2N | 1.5
P2T | 1.93
P2Y | 2.04
T21Y | 2.42
T21I | 2.84
T21L | 2.12
T21K | 2.97
T21W | 1.31
T21C | 2.07
T21F | 1.96
T21V | 1.7
T21M | 2.3
E8T | 2.1
E8M | 1.73
E8F | 2.9
E8P | 2.93
E8D | 3.43
E8S | 2.49
E8N | 3
E8R | 2.06

Variant | protein stability index
E8I | 1.57
A23K | 2.94
A23M | 1.62
A23H | 2.05
A23W | 2.28
A23P | 2.47
A23L | 2.2
A23C | 1.7
A23Q | 2.23
A23T | 2.29
A23Y | 2.75
A23R | 3.33
A23F | 1.07
S14E | 2.47
S14W | 2.5
S14V | 1.02
S14F | 2.14
S14Q | 2.12
S14D | 1.56
S14P | 2.98
S14K | 1.96
S14A | 1.66
S14L | 1.33
S14M | 2.41

Variant | protein stability index
S14G | 1.42
S14R | 1.91
L16Y | 2.3
L16G | 3.32
L16I | 2.36
L16F | 2.26
L16P | 4.09
L16T | 2.74
L16K | 3.56
L16R | 2.57
S5C | 2.36
S5A | 2.31
S5R | 2.03
S5V | 2.04
S5W | 1.82
S5F | 1.21
S5Y | 2.73
S5E | 3.05
S5D | 2.56
G10I | 1.86
G10M | 1.99
G10H | 3.78
G10W | 1.67
G10L | 2.02

Variant | protein stability index
G10D | 2.99
G10T | 2.9
G10N | 4.3
G10S | 3.18
G4T | 2.4
G4S | 2.4
G4F | 2.49
G4M | 2.39
G4L | 1.97
G4C | 2.04
G4I | 2.07
G4N | 1.98
G4E | 3.52
G4Q | 3.42
G4P | 3.02
G4Y | 3.48
G4D | 3.19
R17W | 1.6
R17L | 1.53
R17A | 2.91
R17S | 3.04
R17C | 2.15
R17I | 2.46
R17T | 2.3

Variant | protein stability index
R17M | 1.2
R17H | 2.65
R17E | 3.13
R17G | 3.26
R17D | 3.73
R17F | 1.95
V11N | 3.27
V11R | 2.25
V11D | 3.74
V11L | 2.17
V11Y | 2.21
V11T | 2.95
V11A | 2.61
V11I | 2.5
V11H | 3.11
V11K | 3.37
L6K | 2.36
L6A | 3.35
L6C | 2.17
L6M | 2.45
L6W | 2.39
L6S | 2.95
L6I | 2.2
L6T | 2.83

Variants of: B3
Assay: as above
Conditions: c terminus: a fixed tail appended

Variant | protein stability index
S22A | 3.17
S22R | 1.84
S22M | 2.13
S22G | 2.49
S22T | 1.56
S22P | 3.28
S22K | 3.51
T6I | 2.17
T6Y | 1.58
L21Q | 2.35
L21T | 1.44
D9H | 1.09
V17M | 1.85
V17Y | 2.39
V17W | 1.58
A3S | 1.4
A3N | 1.73
A3E | 1.81
A3R | 1.79
G2A | 2.29
G2N | 2.01
K14S | 1.61

Variant | protein stability index
K14H | 1.42
Y23A | 1.1
Y23T | 2.56
L16W | 2.88
L16P | 3.38
L16S | 3.36
L16I | 2.57
E20Y | 1.59
E20R | 1.61
R5G | 1.64
R5V | 3.3
R5I | 1.85
R5D | 2.39
L19K | 4.38
L19A | 3.97
S10A | 1.92
S10P | 2.36
D11Q | 3.09
D11S | 1.52
D11E | 2.08
D11P | 1.66
D11F | 2.77

Variant | protein stability index
D1K | 4.34
D1E | 1.69
L15I | 1.75
L15G | 3.75
L15K | 4.4
L15Q | 4.28
V13N | 3.08
V13F | 1.37
V13D | 5.09
G4H | 1.62
G4T | 2.05
Q8T | 4.32
W7C | 2.79
W7R | 3.68
W7I | 2.5
W7A | 3.35
W7P | 2.45
G24P | 2.77
G24I | 3.44
G24N | 1.26
T12M | 1.58
T12W | 1.87
